In patent publication US20250154277A1 (CONCEPT TO MEDICINE BIOTECH, published 2025):

What was measured:
human 5T4-His protein [1] = target: T1, human 5T4-His protein (human, UniProt Q13641 32-355); assay: ELISA, coated 5T4-His
T1 construct: also called recombinant 5T4 protein (human 5T4-his tag); human 5T4 protein; not shown: His tag
T1 sequence (looked up): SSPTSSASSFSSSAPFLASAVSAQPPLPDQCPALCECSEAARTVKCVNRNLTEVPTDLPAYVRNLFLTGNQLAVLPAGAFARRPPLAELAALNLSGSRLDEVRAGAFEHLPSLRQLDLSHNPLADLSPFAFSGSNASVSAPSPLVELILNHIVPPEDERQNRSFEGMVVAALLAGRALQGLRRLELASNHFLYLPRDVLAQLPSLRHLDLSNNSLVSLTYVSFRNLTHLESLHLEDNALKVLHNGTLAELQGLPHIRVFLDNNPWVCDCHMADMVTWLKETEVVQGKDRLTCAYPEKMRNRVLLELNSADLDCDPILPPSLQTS
Method: To evaluate the binding activity of 159D5 humanized antibodies to human 5T4, the 159D5 chimeric antibody along with 159D5 humanized mAbs were subjected to ELISA test.
Briefly, microtiter plates were coated with human 5T4-His protein at 1 μg/ml in PBS, 100 μl/well at 4° C. overnight, then blocked with 150 μl/well of 10% BSA. Serial dilutions of antibodies were added to each well and incubated for 1 hour at 37° C. The plates were washed with PBS/Tween and then incubated with Goat Anti-Human IgG-HRP for 30 mins at 37° C. After washing, the plates were developed with TMB substrate and analyzed by spectrophotometer at OD 450 nm. As shown in FIG. 14 and Table 12, most of the humanized antibodies bound to human 5T4 with high activity.

human 5T4-His protein [2] = target: T1, human 5T4-His protein; assay: SPR Biacore, Protein A capture, 50 nM 5T4-His
Method: The binding of the 159D5 humanized antibodies to recombinant 5T4 protein (human 5T4-his tag) was tested with Biacore using a capture method. The mAbs were captured using Protein A chip. 50 nM of human 5T4-his tag protein was injected over captured antibody for 3 mins at a flow rate of 30 μl/min. The antigen was allowed to dissociate for 600 s. All the experiments were carried out on a Biacore T200. Data analysis was carried out using the Biacore T200 evaluation software.

human 5T4-His protein [3] = target: T1, human 5T4-His protein; assay: SPR Biacore, Protein A capture
Method: The binding of the chimeric mAbs from these clones against recombinant 5T4 protein (human 5T4-his tag) was tested with Biacore using a capture method. The mAbs were captured using Protein A chip. A serial dilution of human 5T4-his tag protein was injected over captured antibody for 2-3 mins at a flow rate of 30 μl/min. The antigen was allowed to dissociate for 360-1000 s. All the experiments were carried out on a Biacore T200. Data analysis was carried out using Biacore T200 evaluation software.

human 5T4-His protein [4] = target: T1, human 5T4-His protein; assay: ELISA, coated antigen
Method: (§1) ELISA testing was carried out to evaluate the binding of chimeric antibodies to human and cynomolgus, respectively. The antibody portion of naptumomab (NeoTX) that targets 5T4 (abbreviated as naptumomab in the present disclosure), was generated and used as a benchmark.
(§2) Briefly, microtiter plates were coated with human and cynomolgus 5T4 proteins at […] in PBS, 100 μl/well at 4° C. overnight, then blocked with 150 μl/well of 1% BSA. Serial dilutions of chimeric antibodies were added to each well and incubated for 1 hour at RT. The plates were washed with PBS/Tween and then incubate with mouse-anti-human IgG Fc antibody conjugated with Horse Radish Peroxidase (HRP) for 30 mins at RT. After washing, the plates were developed with TMB substrate and analyzed by spectrophotometer at OD 450 nm. All the 5T4 chimeric mAbs bound to human and cynomolgus 5T4 (FIG. 1-2 and Table 3).

cynomolgus 5T4 protein = target: T2, cynomolgus 5T4 protein (cynomolgus monkey, UniProt Q4R8Y9 35-355, limits assumed); assay: ELISA, coated antigen
T2 construct: Coated protein in ELISA; the screening step names a cyno 5T4-His protein; also called cyno 5T4; recombinant cyno 5T4-His protein
T2 sequence (looked up): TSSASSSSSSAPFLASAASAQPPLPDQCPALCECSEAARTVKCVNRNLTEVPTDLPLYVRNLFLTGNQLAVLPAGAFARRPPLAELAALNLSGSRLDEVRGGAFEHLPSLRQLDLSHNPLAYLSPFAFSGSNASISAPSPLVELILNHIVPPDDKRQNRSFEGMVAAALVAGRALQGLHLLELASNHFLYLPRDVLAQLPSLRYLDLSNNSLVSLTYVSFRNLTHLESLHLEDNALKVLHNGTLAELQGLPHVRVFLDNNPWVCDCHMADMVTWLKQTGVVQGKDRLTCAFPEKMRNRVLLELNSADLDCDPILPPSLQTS
Method: as §1, §2

human 5T4-His protein [5] = target: T1, human 5T4-His protein; assay: SPR Biacore, Protein A capture; remark: listed apart in the source
Method: The binding of the 286B4 humanized antibodies to recombinant 5T4 protein (human 5T4-his tag) was tested with Biacore using a capture method. The mAbs were captured using Protein A chip. A serial dilution of human 5T4-his tag protein was injected over captured antibody for 3 mins at a flow rate of 30 μl/min. The antigen was allowed to dissociate for 280-800 s. All the experiments were carried out on a Biacore T200. Data analysis was carried out using the Biacore T200 evaluation software.

human 5T4-His protein [6] = target: T1, human 5T4-His protein; assay: ELISA, coated 5T4-His; remark: listed apart in the source
In short: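 Plates coated overnight at 4° C with 1 μg/ml 5T4-His, blocked with 1% BSA. Antibodies in 4-fold dilutions from 20 nM, 1 h at 37° C; bound antibody detected with anti-human IgG-HRP (30 min, 37° C), TMB development, OD 450 nm.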

B1: 159D5-P1 (antibody, V domains shown)
VH: DVQLVESGGGLVQPGGSRKLSCTASGFTFSNFGMHWVRQAPETGLEWVAYISSGSSTFYYADAVKGRFTISRDNPKNTLFLQMTSLRSEDTAMYFCARSPAYYRYGLDYWGQGTTLTVSS
VL: DIVLTQSPASLAVSLGQRATISCRASQSVSSSTFSYMHWYQQKPGQPPKLLIKSSSNLESGVPARFSGSGSGTDFTLNIHPVEEEDTATYYCQHSWEIPYTFGGGTKLEIK
notes: chimeric 159D5 with S62A (DS to DA) in VH CDR2; also called PTM removal antibody of 159D5-P1; 159D5-VH.S62A with 159D5 VL
Human 5T4-His protein [1]
  EC50: 0.13 nM
Human 5T4-His protein [2]
  Kd: 0.489 nM
  koff: 0.000163 s⁻¹
  kon: 334000 M⁻¹ s⁻¹

B2: Hu159D5-2 (antibody, V domains shown)
VH: EVQLVESGGGVVQPGRSLRLSCAASGFTFSNFGMHWVRQAPGKGLEWVAYISSGSSTFYYADSVKGRFTISRDNSKNTLYLQMNSLRAEDTAVYYCARSPAYYRYGLDYWGQGTTVTVSS
VL: DIVMTQTPLSLSVTPGQPASISCRASQSVSSSTFSYMHWYQQKPGQPPQLLIKSSSNLESGVPDRFSGSGSGTDFTLKISRVEAEDVGVYYCQHSWEIPYTFGGGTKVEIK
notes: humanized
Human 5T4-His protein [1]
  EC50: 0.12 nM
Human 5T4-His protein [2]
  Kd: 0.789 nM
  koff: 0.000227 s⁻¹
  kon: 287000 M⁻¹ s⁻¹

B3: Hu159D5-5 (antibody, V domains shown)
VH: EVQLVESGGGVVQPGRSLRLSCAASGFTFSNFGMHWVRQAPGKGLEWVAYISSGSSTFYYADSVKGRFTISRDNSKNTLYLQMNSLRAEDTAVYYCARSPAYYRYGLDYWGQGTTVTVSS
VL: DIVMTQSPDSLAVSLGERATINCRASQSVSSSTFSYMHWYQQKPGQPPKLLIKSSSNLESGVPDRFSGSGSGTDFTLTISSLQAEDVAVYYCQHSWEIPYTFGGGTKVEIK
notes: humanized
Human 5T4-His protein [1]
  EC50: 0.099 nM
Human 5T4-His protein [2]
  Kd: 10.1 nM
  koff: 0.000561 s⁻¹
  kon: 55600 M⁻¹ s⁻¹

B4: Hu159D5-7 (antibody, V domains shown)
VH: EVQLVESGGGVVQPGRSLRLSCAASGFTFSNFGMHWVRQAPGKGLEWVAYISSGSSTFYYADSVKGRFTISRDNSKNTLYLQMNSLRAEDTAVYFCARSPAYYRYGLDYWGQGTTVTVSS
VL: DIVMTQTPLSLSVTPGQPASISCRASQSVSSSTFSYMHWYQQKPGQPPQLLIYSSSNLESGVPDRFSGSGSGTDFTLKISRVEAEDVGVYYCQHSWEIPYTFGGGTKVEIK
notes: humanized
Human 5T4-His protein [1]
  EC50: 0.097 nM
Human 5T4-His protein [2]
  Kd: 1.14 nM
  koff: 0.000253 s⁻¹
  kon: 221000 M⁻¹ s⁻¹

B5: Hu159D5-8 (antibody, V domains shown)
VH: EVQLVESGGGVVQPGRSLRLSCAASGFTFSNFGMHWVRQAPGKGLEWVAYISSGSSTFYYADSVKGRFTISRDNSKNTLYLQMNSLRAEDTAVYFCARSPAYYRYGLDYWGQGTTVTVSS
VL: DIVMTQTPLSLSVTPGQPASISCRASQSVSSSTFSYMHWYQQKPGQPPQLLIKSSSNLESGVPDRFSGSGSGTDFTLKISRVEAEDVGVYYCQHSWEIPYTFGGGTKVEIK
notes: humanized
Human 5T4-His protein [1]
  EC50: 0.15 nM
Human 5T4-His protein [2]
  Kd: 4.19 nM
  koff: 0.000352 s⁻¹
  kon: 84000 M⁻¹ s⁻¹

B6: Hu159D5-9 (antibody, V domains shown)
VH: EVQLVESGGGVVQPGRSLRLSCAASGFTFSNFGMHWVRQAPGKGLEWVAYISSGSSTFYYADSVKGRFTISRDNSKNTLYLQMNSLRAEDTAVYFCARSPAYYRYGLDYWGQGTTVTVSS
VL: DIVLTQTPLSLSVTPGQPASISCRASQSVSSSTFSYMHWYQQKPGQPPQLLIKSSSNLESGVPDRFSGSGSGTDFTLKISRVEAEDVGVYYCQHSWEIPYTFGGGTKVEIK
notes: humanized
Human 5T4-His protein [1]
  EC50: 0.14 nM
Human 5T4-His protein [2]
  Kd: 0.747 nM
  koff: 0.000221 s⁻¹
  kon: 295000 M⁻¹ s⁻¹

B7: Hu159D5-1 (antibody, V domains shown)
VH: EVQLVESGGGVVQPGRSLRLSCAASGFTFSNFGMHWVRQAPGKGLEWVAYISSGSSTFYYADSVKGRFTISRDNSKNTLYLQMNSLRAEDTAVYYCARSPAYYRYGLDYWGQGTTVTVSS
VL: DIVMTQTPLSLSVTPGQPASISCRASQSVSSSTFSYMHWYQQKPGQPPQLLIYSSSNLESGVPDRFSGSGSGTDFTLKISRVEAEDVGVYYCQHSWEIPYTFGGGTKVEIK
notes: humanized
Human 5T4-His protein [1]
  EC50: 0.088 nM
Human 5T4-His protein [2]
  Kd: 3.99 nM
  koff: 0.000294 s⁻¹
  kon: 73700 M⁻¹ s⁻¹

B8: Hu159D5-3 (antibody, V domains shown)
VH: EVQLVESGGGVVQPGRSLRLSCAASGFTFSNFGMHWVRQAPGKGLEWVAYISSGSSTFYYADSVKGRFTISRDNSKNTLYLQMNSLRAEDTAVYYCARSPAYYRYGLDYWGQGTTVTVSS
VL: DIVLTQTPLSLSVTPGQPASISCRASQSVSSSTFSYMHWYQQKPGQPPQLLIKSSSNLESGVPDRFSGSGSGTDFTLKISRVEAEDVGVYYCQHSWEIPYTFGGGTKVEIK
notes: humanized
Human 5T4-His protein [1]
  EC50: 0.12 nM
Human 5T4-His protein [2]
  Kd: 1.02 nM
  koff: 0.00024 s⁻¹
  kon: 235000 M⁻¹ s⁻¹

B9: 85B10 chimeric antibody (antibody, V domains shown)
VH: QVQLQQSGPELVKPGASVKISCKASGYTFTAYYVNWVKQSHGKSLEWIGDINPNNGGTNYNQKFKGKATLTVDMSSSTAYMELRSLTSEDSAVYYCAKEGPPGAMDYWGQGTSVTVSS
VL: SIVLTQTPKFLLVSAGDRVPITCKASQSVSNNVAWYQQKPGQSPKLLIYYASNPYTGVPDRFTGSGYGTDFTFTITTVQAEDLAVYFCQQVYSSPFTFGGGTKLEMK
notes: chimeric mAb
Human 5T4-His protein [3]
  Kd: 0.792 nM
  koff: 0.000125 s⁻¹
  kon: 158000 M⁻¹ s⁻¹
Human 5T4-His protein [4]
  EC50: 0.34 nM
Cynomolgus 5T4 protein
  EC50: 0.17 nM

B10: 286B4 chimeric antibody (antibody, V domains shown)
VH: DVQLHESGPGLVKPSQSLSLTCSVTGYSITNNYYWNWIRQFPGNNLEWMGYITYDGSNNYNPSLKNRISVTRDTSKNQFFLKLSSVTTEDTATYYCTRGGGQLRFDYWGQGTTLTVSS
VL: SIVMTQTPKFLIVSAGDRVTITCKASQSVSNEVTWYQQKPGQSPKMLIYYASNRYTGVPDRFTGSGYGTDFTFTINTVQAEDLAIYFCQQDYSSPWTFGGGTKLEIK
notes: chimeric mAb; also called 284B4-C
Human 5T4-His protein [5]
  Kd: 1.25 nM
  koff: 0.000113 s⁻¹
  kon: 90900 M⁻¹ s⁻¹
Human 5T4-His protein [3]
  Kd: 0.96 nM
  koff: 6.99e-05 s⁻¹
  kon: 72800 M⁻¹ s⁻¹
Human 5T4-His protein [6]
  EC50: 0.32 nM
Human 5T4-His protein [4]
  EC50: 0.35 nM
Cynomolgus 5T4 protein
  EC50: 0.22 nM
